Patent US20250281632A1, “LGALS3BP ANTIBODY-DRUG-CONJUGATE AND ITS USE FOR THE TREATMENT OF CANCER” (MEDIAPHARMA S.R.L., priority 2018, published 2025)

T1: Human recombinant LGALS3BP (human, UniProt Q08380 19-585)
T1 construct: also called 90K
T1 sequence (looked up): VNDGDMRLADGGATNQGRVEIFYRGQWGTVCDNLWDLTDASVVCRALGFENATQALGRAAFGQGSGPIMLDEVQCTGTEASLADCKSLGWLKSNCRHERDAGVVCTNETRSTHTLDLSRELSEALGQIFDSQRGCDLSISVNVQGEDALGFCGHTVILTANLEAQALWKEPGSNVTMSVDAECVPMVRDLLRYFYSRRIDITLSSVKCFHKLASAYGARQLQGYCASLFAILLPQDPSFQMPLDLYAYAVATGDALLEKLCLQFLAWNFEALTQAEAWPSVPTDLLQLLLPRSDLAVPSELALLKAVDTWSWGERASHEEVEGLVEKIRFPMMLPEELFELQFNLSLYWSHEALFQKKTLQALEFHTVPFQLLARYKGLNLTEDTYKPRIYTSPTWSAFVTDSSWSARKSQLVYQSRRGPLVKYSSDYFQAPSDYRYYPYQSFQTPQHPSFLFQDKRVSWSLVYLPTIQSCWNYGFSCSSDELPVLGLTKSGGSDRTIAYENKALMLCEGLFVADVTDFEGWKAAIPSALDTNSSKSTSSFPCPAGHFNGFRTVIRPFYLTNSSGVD

T2: LGALS3BP at the membrane of human tumor cells (human, UniProt Q08380 19-585)
T2 construct: whole, on cells; A secreted protein that stays close to the plasma membrane; It was detected by immunofluorescence on cells; also called Gal-3BP
T2 sequence (looked up): T1 sequence (looked up)

B1: Antibody 1959-sss (C220S-C226S-C229S) (antibody, V domains shown)
VH: QVQLQESGPGLVKPSETLSLTCAVSGYSISSGYYWTWIRQPPGKGLEWIGYITYDGKNNYSPSLKNRVTISVDTSKNQFSLKLSSVTAADTAVYYCAREGSSVITTGFTFWGQGTLVTVSS
VL: DIQMTQSPSTLSASVGDRVTITCSASSRVSYMYWYQQKPGKAPKLLIYLTSNLASGVPARFSGSGSGTEFTLTISSLQPDDFATYYCQQWTSHPPTFGQGTKVEVKR
notes: Humanized SP-2 on a human IgG framework, with the hinge cysteines 220, 226 and 229 changed to serine, so no interchain disulfides; Made in CHO cells
B2: 1959-sss-DM3 (antibody, V domains shown)
VH: B1 VH
VL: B1 VL
modifications: maytansinoid DM3 joined by a disulfide bond to a cysteine of the light chain (DAR 2; light chain mass 24053 Da against 23261 Da reduced); residue number not given
notes: also called Ab1959-SSS-DM3

Assays:
[1] = tested on: Neuroblastoma cell lines (SHSY5Y, Kelly and hNB); assay: MTT cell killing assay; format: cell-based, human; details: 72 hours, A375m melanoma cells as positive control (FIG. 19)
Description: Neuroblastoma cell lines (SHSY5Y, Kelly and hNB) and A375m melanoma cell line were plated and treated with increasing concentrations of SH-DM3 for 72 hours. The cell killing activity of the drug was evaluated by MTT assay.

[2] = target: T1, Human recombinant LGALS3BP; assay: ELISA, plate-coated human recombinant LGALS3BP, anti-human IgG-HRP detection
Description: Human recombinant LGALS3BP (2 μg/ml) was pre-coated overnight at 4° C. on 96 well-plates NUNC Maxisorp modules. […] After several washes with PBS-0, 1% Tween-20, anti-human IgG-HRP was added and incubated for 1 hour at room temperature. After washes, stabilized chromogen was added for at least 10 minutes in the dark, before stopping the reaction with the addition of 1 N H₂SO₄. The resulting color was read at 492 nm with an Elisa reader.

[3] = target: T2, LGALS3BP at the membrane of human tumor …; assay: confocal immunofluorescence on MDA-MB-231, A375 and FADU cells, anti-human IgG-Alexa Fluor 488
Description: Human tumor cells were grown on glass coverslips for 24 hours. […] At the end of incubation, cells were fixed in 4% paraformaldehyde for 15 minutes at room temperature, permeabilized with 0.25% Triton X-100 for 5 minutes, and blocked with 0.1% BSA for 1 hour at room temperature. Coverslips were then incubated with anti-human IgG-Alexa Fluor 488 conjugated. DRAQ5 was used to visualize nuclei. Images were acquired with a Zeiss LSM 510 meta-confocal microscopy using 488- and 633-nm lasers. [0142] […] [0143] A-B; MDA-MB-231 breast cancer; C-D, A375 melanoma; E-F, FADU, H&N cancer; G-H, HBF, normal bronchial fibroblasts.

| Molecule | cell killing activity [1] | binding result [2] | binding result [3] |
| --- | --- | --- | --- |
| COc1cc2cc(c1Cl)N(C)C(=O)C[C@H](OC(=O)C(C)N(C)C(=O)CCC(C)S)[C@]1(C)O[C@H]1[C@H](C)C1C[C@@](O)(NC(=O)O1)[C@H](OC)/C=C/C=C(\C)C2 (some centres unmarked) [SH DM3] | potent cell killing activity | – | – |
| B1 | – | binds | binds |
| B2 | – | binds | binds |
